From publication PMC10711656, “RZZ‐Spindly and CENP‐E form an integrated platform to recruit dynein to the kinetochore corona” (The EMBO Journal, 2023)

What was measured:
[1] = target: T1, ^mCHRZZ^mChS rings (mCherry-RZZ with prefarnesylated mCherry-Spindly, polymerised with GST-MPS1) (UniProt P50748 1-2209; Q9H900 1-591; O43264 1-779; Q96EA4 1-605, incubated with GST-MPS1 (the paper says that MPS1 phosphorylates ROD on Thr13 and Ser15) | farnesylated (prefarnesylated)); assay: TIRF microscopy ring-binding assay; mCherry-RZZ/mCherry-Spindly rings (approximately 40 nM) held on the coverslip by anti-mCherry GST-tagged nanobody; EGFP-CENP-E constructs (10 nM) flowed in; A-buffer (50 mM HEPES pH 8, 200 mM NaCl, 2 mM TCEP, 0.1 mg/ml BSA); room temperature; conditions: both partners purified
T1 construct: ROD subunit of the ROD-Zwilch-ZW10 (RZZ) complex; Zwilch subunit of the RZZ complex; ZW10 subunit of the RZZ complex; Spindly, dynein-dynactin adaptor; Constructs as in Sacristan et al, 2018, Raisch et al, 2022 and d'Amico et al, 2022; also called RZZS minicircles; RZZS rings; source: mCherry-RZZ: biGBac system, purified as previously described; mCherry-Spindly: Tnao38 insect cells, purified; 4 …
T1 sequence (P50748 whole entry, chain 1 of 4): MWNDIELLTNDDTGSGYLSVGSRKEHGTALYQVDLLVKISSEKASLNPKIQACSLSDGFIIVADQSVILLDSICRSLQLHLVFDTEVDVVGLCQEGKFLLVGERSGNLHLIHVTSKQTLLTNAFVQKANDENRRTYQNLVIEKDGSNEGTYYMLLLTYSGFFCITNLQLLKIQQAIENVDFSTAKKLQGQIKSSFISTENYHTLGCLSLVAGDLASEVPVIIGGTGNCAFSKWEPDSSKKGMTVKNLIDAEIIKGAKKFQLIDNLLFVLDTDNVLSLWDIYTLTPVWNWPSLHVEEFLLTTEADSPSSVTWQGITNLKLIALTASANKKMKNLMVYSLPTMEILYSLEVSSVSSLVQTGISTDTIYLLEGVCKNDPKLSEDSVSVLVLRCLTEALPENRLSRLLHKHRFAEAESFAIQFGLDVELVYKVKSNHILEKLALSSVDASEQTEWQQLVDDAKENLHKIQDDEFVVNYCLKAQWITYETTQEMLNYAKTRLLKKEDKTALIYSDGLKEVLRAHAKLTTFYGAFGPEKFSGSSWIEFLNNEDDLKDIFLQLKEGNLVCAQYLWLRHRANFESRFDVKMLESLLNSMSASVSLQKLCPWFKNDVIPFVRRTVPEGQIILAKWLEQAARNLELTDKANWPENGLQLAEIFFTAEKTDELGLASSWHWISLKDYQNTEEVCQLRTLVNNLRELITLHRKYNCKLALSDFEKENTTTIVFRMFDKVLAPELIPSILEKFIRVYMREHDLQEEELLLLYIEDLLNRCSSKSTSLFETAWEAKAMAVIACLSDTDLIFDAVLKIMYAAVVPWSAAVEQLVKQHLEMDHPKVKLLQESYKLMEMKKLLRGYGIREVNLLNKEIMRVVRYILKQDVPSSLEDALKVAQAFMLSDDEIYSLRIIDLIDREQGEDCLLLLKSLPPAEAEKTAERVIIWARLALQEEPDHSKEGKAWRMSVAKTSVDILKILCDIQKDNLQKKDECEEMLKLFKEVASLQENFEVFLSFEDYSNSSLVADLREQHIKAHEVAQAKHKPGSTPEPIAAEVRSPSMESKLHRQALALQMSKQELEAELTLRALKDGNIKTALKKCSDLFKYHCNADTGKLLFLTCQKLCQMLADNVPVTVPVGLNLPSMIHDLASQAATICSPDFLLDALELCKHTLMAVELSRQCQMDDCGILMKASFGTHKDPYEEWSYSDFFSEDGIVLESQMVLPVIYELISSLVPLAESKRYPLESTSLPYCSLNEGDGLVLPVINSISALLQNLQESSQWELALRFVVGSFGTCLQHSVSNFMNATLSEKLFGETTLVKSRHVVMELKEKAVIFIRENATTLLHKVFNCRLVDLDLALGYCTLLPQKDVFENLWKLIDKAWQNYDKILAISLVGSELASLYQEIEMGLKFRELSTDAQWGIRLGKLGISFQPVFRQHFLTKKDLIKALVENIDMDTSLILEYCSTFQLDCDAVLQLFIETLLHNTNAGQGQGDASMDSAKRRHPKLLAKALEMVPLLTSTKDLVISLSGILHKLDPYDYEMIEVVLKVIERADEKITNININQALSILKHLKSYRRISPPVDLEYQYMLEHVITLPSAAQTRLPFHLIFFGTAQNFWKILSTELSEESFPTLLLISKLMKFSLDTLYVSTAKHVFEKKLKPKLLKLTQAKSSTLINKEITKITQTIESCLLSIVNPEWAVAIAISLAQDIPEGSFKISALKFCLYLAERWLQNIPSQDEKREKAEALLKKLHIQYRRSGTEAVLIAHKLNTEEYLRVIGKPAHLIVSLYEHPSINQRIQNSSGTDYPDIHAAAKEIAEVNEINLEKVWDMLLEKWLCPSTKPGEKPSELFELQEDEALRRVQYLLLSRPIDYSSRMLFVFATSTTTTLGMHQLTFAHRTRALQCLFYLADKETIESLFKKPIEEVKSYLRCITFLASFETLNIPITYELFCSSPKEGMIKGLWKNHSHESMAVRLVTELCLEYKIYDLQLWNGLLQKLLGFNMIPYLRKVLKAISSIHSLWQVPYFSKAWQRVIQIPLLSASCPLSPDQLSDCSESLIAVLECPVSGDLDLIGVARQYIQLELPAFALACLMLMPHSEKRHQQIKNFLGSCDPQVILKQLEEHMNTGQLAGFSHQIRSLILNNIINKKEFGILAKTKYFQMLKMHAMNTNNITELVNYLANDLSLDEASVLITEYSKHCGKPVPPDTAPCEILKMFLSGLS
T1 sequence (Q9H900 whole entry, chain 2 of 4): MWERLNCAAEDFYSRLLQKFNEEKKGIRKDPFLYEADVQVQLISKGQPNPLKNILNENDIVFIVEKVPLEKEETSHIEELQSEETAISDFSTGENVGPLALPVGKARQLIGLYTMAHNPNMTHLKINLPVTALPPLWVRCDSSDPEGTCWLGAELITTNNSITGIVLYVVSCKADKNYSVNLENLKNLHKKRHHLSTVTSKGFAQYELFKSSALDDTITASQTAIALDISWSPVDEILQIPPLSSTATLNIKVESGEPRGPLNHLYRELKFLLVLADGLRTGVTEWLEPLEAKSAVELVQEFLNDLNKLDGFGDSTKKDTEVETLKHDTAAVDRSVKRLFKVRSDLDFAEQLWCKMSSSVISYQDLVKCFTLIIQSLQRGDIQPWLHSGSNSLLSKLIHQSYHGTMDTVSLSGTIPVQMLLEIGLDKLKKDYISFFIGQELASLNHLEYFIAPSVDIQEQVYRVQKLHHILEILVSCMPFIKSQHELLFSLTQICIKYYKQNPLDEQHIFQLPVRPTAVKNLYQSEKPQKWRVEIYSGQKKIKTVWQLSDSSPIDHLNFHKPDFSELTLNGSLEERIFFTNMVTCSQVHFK
T1 sequence (O43264 whole entry, chain 3 of 4): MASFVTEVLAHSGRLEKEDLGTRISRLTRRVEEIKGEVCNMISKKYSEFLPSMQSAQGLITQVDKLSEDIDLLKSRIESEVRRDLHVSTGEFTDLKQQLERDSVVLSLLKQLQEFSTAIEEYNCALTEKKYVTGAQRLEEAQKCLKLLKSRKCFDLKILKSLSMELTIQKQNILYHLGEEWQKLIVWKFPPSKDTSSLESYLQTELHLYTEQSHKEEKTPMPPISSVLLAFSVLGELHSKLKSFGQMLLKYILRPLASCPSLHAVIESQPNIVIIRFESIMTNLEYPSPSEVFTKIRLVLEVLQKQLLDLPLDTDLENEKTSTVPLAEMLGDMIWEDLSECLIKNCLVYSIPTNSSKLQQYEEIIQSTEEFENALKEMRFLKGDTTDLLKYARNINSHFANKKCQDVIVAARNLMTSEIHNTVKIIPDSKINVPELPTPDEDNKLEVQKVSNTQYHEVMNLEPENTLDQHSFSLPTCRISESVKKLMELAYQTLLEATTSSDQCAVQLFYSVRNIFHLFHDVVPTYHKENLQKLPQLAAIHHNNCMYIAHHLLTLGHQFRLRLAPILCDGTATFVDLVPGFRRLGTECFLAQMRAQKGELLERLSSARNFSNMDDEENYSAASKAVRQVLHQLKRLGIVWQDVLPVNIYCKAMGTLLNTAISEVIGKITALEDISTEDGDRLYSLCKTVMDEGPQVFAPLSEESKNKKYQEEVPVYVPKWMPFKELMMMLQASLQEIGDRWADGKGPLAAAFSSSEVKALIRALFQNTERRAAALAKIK
T1 sequence (Q96EA4 whole entry, chain 4 of 4): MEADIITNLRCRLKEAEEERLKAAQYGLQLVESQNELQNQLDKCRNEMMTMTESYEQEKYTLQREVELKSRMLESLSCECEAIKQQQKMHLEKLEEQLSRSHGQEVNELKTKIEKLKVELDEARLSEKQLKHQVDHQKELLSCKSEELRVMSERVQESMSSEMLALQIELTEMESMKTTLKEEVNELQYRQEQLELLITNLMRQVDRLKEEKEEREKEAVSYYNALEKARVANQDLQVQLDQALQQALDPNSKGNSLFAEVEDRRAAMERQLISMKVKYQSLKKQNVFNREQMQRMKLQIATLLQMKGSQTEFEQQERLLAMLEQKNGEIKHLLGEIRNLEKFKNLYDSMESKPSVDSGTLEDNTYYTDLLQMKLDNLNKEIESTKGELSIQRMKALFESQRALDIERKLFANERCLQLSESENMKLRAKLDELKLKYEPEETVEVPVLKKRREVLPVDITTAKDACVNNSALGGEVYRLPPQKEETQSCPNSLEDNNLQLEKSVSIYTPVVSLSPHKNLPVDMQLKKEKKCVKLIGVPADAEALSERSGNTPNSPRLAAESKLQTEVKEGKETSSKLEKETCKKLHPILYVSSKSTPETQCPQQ

[2] = target: T2, ^mChRZZS filaments (mCherry-RZZ with prefarnesylated Spindly, polymerised with GST-MPS1) (UniProt P50748 1-2209; Q9H900 1-591; O43264 1-779; Q96EA4 1-605, incubated with GST-MPS1 (the paper says that MPS1 phosphorylates ROD on Thr13 and Ser15) | farnesylated (prefarnesylated)); assay: filament-binding assay (fluorescence microscopy); mCherry-RZZS filaments diluted 1:8, EGFP-CENP-E constructs added to 1 μM, flowed into a flow chamber and imaged; M-buffer (50 mM HEPES pH 7.5, 100 mM NaCl, 1 mM MgCl2, 1 mM TCEP); conditions: both partners purified
T2 construct: ROD subunit of the ROD-Zwilch-ZW10 (RZZ) complex; Zwilch subunit of the RZZ complex; ZW10 subunit of the RZZ complex; Spindly, dynein-dynactin adaptor; no mCherry is named on the Spindly of the filaments; Filaments formed essentially as described by d'Amico et al (2022); source: mCherry-RZZ: biGBac system, purified as previously described; 4 μM mCherry-RZZ and 8 μM prefarnesylated Spindly …
T2 sequence (P50748 whole entry, chain 1 of 4): as the sequence (P50748 whole entry, chain 1 of 4) above
T2 sequence (Q9H900 whole entry, chain 2 of 4): as the sequence (Q9H900 whole entry, chain 2 of 4) above
T2 sequence (O43264 whole entry, chain 3 of 4): as the sequence (O43264 whole entry, chain 3 of 4) above
T2 sequence (Q96EA4 whole entry, chain 4 of 4): as the sequence (Q96EA4 whole entry, chain 4 of 4) above

B1: EGFP‐CENP‐E^2366C (domain or fragment, human, UniProt Q02224 2366-2701, looked up)
chain: NKNPHVTSRATQLTTEKIRELENSLHEAKESAMHKESKIIKMQKELEVTNDIIAKLQAKVHESNKCLEKTKETIQVLQDKVALGAKPYKEEIEDLKMKLVKIDLEKMKNAKEFEKEISATKATVEYQKEVIRLLRENLRRSQQAQDTSVISEHTDPQPSNKPLTCGGGSGIVQNTKALILKSEHIRLEKEISKLKQQNEQLIKQKNELLSNNQHLSNEVKTWKERTLKREAHKQVTCENSPKSPKVTGTASKKKQITPSQCKERNLQDPVPKESPKSCFFDSRSKSLPSPHPVRYFDNSSLGLCPEVQNAGAESVDSQPGPWHASSGKDVPECKTQ
notes: source: E. coli BL21 (DE3) RP plus, purified (HisTrap FF, Superose 6); not shown: EGFP, N-terminal, kept
binding result [1]: binds

B2: EGFP‐CENP‐E^2070C (domain or fragment, human, UniProt Q02224 2070-2701, looked up)
chain: RQNHQVKPEKRLLSDGQQHLTESLREKCSRIKELLKRYSEMDDHYECLNRLSLDLEKEIEFQKELSMRVKANLSLPYLQTKHIEKLFTANQRCSMEFHRIMKKLKYVLSYVTKIKEEQHESINKFEMDFIDEVEKQKELLIKIQHLQQDCDVPSRELRDLKLNQNMDLHIEEILKDFSESEFPSIKTEFQQVLSNRKEMTQFLEEWLNTRFDIEKLKNGIQKENDRICQVNNFFNNRIIAIMNESTEFEERSATISKEWEQDLKSLKEKNEKLFKNYQTLKTSLASGAQVNPTTQDNKNPHVTSRATQLTTEKIRELENSLHEAKESAMHKESKIIKMQKELEVTNDIIAKLQAKVHESNKCLEKTKETIQVLQDKVALGAKPYKEEIEDLKMKLVKIDLEKMKNAKEFEKEISATKATVEYQKEVIRLLRENLRRSQQAQDTSVISEHTDPQPSNKPLTCGGGSGIVQNTKALILKSEHIRLEKEISKLKQQNEQLIKQKNELLSNNQHLSNEVKTWKERTLKREAHKQVTCENSPKSPKVTGTASKKKQITPSQCKERNLQDPVPKESPKSCFFDSRSKSLPSPHPVRYFDNSSLGLCPEVQNAGAESVDSQPGPWHASSGKDVPECKTQ
notes: codon-optimised cDNA; The His6-EGFP tag is PreScission-cleavable, but no cleavage step is described; source: insect cells (biGBac; baculovirus from Sf9, expression in Tnao38), purified (HisTrap, Superdex 200); not shown: EGFP, N-terminal, kept
binding result [2]: binds
binding result [1]: binds
